Laboratory results reported in US20080260641A1 (Genmab, published 2008).

Assays:
human CD20 [1] = target: T1, human CD20 (human, UniProt P11836 1-297); assay: flow cytometry on CD20-positive NS/0 cells, control antibody
T1 construct: whole, on cells; also called WT CD20; wild-type (WT) CD20
T1 sequence (looked up): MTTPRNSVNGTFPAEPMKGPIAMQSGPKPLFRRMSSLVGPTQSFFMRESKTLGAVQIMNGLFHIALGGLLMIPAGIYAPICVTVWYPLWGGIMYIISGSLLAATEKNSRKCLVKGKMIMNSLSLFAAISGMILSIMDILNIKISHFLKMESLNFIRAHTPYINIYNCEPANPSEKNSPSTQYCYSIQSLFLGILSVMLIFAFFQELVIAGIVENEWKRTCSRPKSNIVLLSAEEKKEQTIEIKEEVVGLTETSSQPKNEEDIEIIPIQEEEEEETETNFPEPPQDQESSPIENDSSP

human CD20 [2] = target: T1, human CD20; assay: flow cytometry blocking assay on CD20-NS/0 cells: pre-incubation with the control, then competitor rituximab-FITC 10 µg/ml
human CD20 [3] = target: T1, human CD20; assay: flow cytometry, FITC-conjugated antibodies on Daudi and Raji cells

Question: What does the source list for human IgG1 control antibody?
Answer: Binding CD20-NS/0 (mean fluorescence) (mean fluorescence) (human CD20 [1]): 14; Blocking of rituximab (signal of rituximab-FITC left after pre-incubation) (human CD20 [2]): 179

Question: With human IgM control antibody as the molecule, how does the Binding CD20-NS/0 (mean fluorescence) (mean fluorescence) (human CD20 [1]) read?
Answer: 9

Question: What about the Blocking of rituximab (signal of rituximab-FITC left after pre-incubation) (human CD20 [2]) of the same molecule?
Answer: 182

B1: 11B8 (antibody, V domains shown)
VH: EVQLVQSGGGLVHPGGSLRLSCTGSGFTFSYHAMHWVRQAPGKGLEWVSIIGTGGVTYYADSVKGRFTISRDNVKNSLYLQMNSLRAEDMAVYYCARDYYGAGSFYDGLYGMDVWGQGTTVTVSS
VL: EIVLTQSPATLSLSPGERATLSCRASQSVSSYLAWYQQKPGQAPRLLIYDASNRATGIPARFSGSGSGTDFTLTISSLEPEDFAVYYCQQRSDWPLTFGGGTKVEIK
notes: also called human recombinant monoclonal IgG1,κ anti-CD20 antibody 11B8
Question: Does B1 bind (human CD20 [3])?
Answer: binds
